This experiment has as its target Wildtype His6-Gαi1 (UniProt P63096 1-354). As to the kind of experiment: SPR. For orientation: SPR reads the build-up and loss of mass on a sensor chip optically.

Sequence of Wildtype His6-Gαi1 (P63096 whole entry): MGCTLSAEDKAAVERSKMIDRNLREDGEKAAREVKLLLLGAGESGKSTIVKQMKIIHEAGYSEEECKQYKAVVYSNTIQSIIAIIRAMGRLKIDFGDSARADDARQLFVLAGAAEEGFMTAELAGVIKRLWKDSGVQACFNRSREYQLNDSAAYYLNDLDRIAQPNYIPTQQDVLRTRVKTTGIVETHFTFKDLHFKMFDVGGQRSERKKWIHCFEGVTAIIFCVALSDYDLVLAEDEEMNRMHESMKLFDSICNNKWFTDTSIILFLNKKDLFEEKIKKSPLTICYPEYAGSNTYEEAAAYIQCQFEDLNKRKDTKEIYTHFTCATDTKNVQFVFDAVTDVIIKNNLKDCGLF

B1: RGS21 (regulator of G protein signaling-21), wildtype, His6 tag cleaved (natural protein, human, UniProt Q2M5E4 1-152, looked up)
chain: MPVKCCFYRSPTAETMTWSENMDTLLANQAGLDAFRIFLKSEFSEENVEFWLACEDFKKTKNADKIASKAKMIYSEFIEADAPKEINIDFGTRDLISKNIAEPTLKCFDEAQKLIYCLMAKDSFPRFLKSEIYKKLVNSQQVPNHKKWLPFL
The term Kd denotes a measure of binding affinity in units of concentration. Take B1: the Kd was found to be 57 nM.

These data come from publication PMC3985343 (The Laryngoscope, 2013).
